Measured values: patent US20020120098A1, “Enhanced stimulation of erythropoiesis” (priority 1996, published 2002)
Like-named read-outs stand apart in the source and are kept apart here. Each block holds one compound with its values, some of them ahead of it.

Assays:
CFU-GM = experiment: Colony formation assay (CFA), cord blood LDMNC: CFU-GM colonies; type: cell-based, human
Method: (§1) This technique, referred to as the colony formation assay (CFA), is the most widely used biological assay to identify and enumerate erythroid progenitors present in hematopoietic tissue such as blood and bone marrow. Cell populations containing erythroid progenitors are plated in semi-solid suspensions of methyl cellulose, agar, low melting agarose or related substances in nutrient culture medium containing 1-3 U/ml Epo and 10 ng/ml IL-3 to specifically stimulate erythroid progenitors. Plates are incubated at 37° C. for 14 days during which time the erythroid progenitors form characteristic hemoglobinized (red) colonies. Two distinct but related erythroid progenitors can be distinguished based on colony size and morphology: BFU-E, the most primitive recognizable erythroid progenitor forms large multilobular colonies whereas the more mature CFU-E forms smaller spherical colonies.
(§2) Adult hemoglobin was purified according to U.S Pat. Nos. 5,439,591 and 5,545,328 to obtain HAo and HEMOLINK™ was prepared from HAo according to U.S. Pat. No. 5,532,352. Human umbilical cord blood intended for discard was collected from the umbilical vein of placentas immediately postpartum into 10 ml vacutainer tubes containing 143 USP units/ml sodium heparin. Low density mononuclear cells were separated from red blood cells by centrifugation over a 1.077 g/ml density gradient Cells removed from the plasma/density gradient interface were incubated overnight in a tissue culture flask with 10 ml cell culture medium containing 10% fetal bovine serum, and non-adherent LDMNC were further purified with an additional density gradient step. The LDMNC were then plated into colony formation assays (CFA) on the second day of isolation. In the CFA, LDMNC were plated at a density of 1×10^5 cells/ml in Iscoves modified Dulbeccos cell culture medium containing 0.8% methyl-cellulose, 30% fetal bovine serum, 1% bovine serum albumin, 0.1 mM 2-mercaptoethanol and 2 mM L-glutamine. Unless indicated otherwise, under standard CFA conditions 2 U/ml Epo and 10 ng/ml IL-3 are added to the formulation to stimulate hematopoietic progenitor growth, specifically BFU-E, CFU-E and CFU-GM.
(§3) Each condition was tested in duplicate in from 2-18 independent experiments. Cultures were maintained in a humidified incubator at 37° C., 5% CO2 and ambient oxygen tensions. The number of hematopoietic progenitors was scored between days 13-15 by counting the number and types of colonies present.
(§4) The effect of the various additives on the inhibitory effect of succinylacetone (SA), a heme synthesis inhibitor, on erythroid progenitors was determined. Primary LDMNC were cultured in methyl cellulose as described in Example 1. Cord blood LDMN were plated in the presence of 1.0 mg/ml HAo (15.6 μM; n=12) or HEMOLINK™ (15.6 μM; n=5), 100 μM hemin (n=12), 250 μM FeCl3 (n=11) or no addition (n=12), in absence or presence of 0.5 mM SA. Cultures were maintained in a humidified chamber at 37° C., 5% CO2, and ambient oxygen tensions for 14 days.
HEMOLINK™ was evaluated for its ability to protect erythroid progenitor cells from toxicity due to ganciclovir. Cord blood LDMNC were set up in CFAs in the presence and absence of 1 mg/ml HEMOLINK™ plus 0, 0.1, 1.0, 10, 50 or 100 μM ganciclovir. Conditions for the CFA were similar to those described in Examples 1-4. […] All data are expressed relative to the number of colonies of control plates without HEMOLINK™. The hematopoietic progenitors display different sensitivities to ganciclovir. CFU-E were unaffected by 1 μM ganciclovir. However, a similar inhibition of BFU-E occurs at a 50-fold lower dose of ganciclovir (1 μM). […] Due to the difficulty in scoring CFU-GM in the presence of hemoglobin precipitates, as previously noted, they could not be accurately measured under these conditions. Thus, HEMOLINK™ reduces toxicity of ganciclovir to erythroid progenitors with the most pronounced effect on BFU-E cells.

[1] = test system: total erythroid progenitors (BFU-E+CFU-E); experiment: Inhibition of succinylacetone (SA) toxicity to erythroid progenitors in CFA; type: cell-based, human; settings: 0.5 mM SA only, no other addition
Method: as §4
Results are expressed as the number of total erythroid progenitors (BFU-E+CFU-E) present on plates treated with the various additives in the presence of SA relative to the number present on untreated plates (no SA or other addition). Significant differences in the presence of the respective additives compared to no addition (SA only; relative progenitor number=0.31) are as indicated: *p<0.001, **p<0.0001. Significant differences in the presence of the respective additives compared to no treatment (no SA; solid line at relative erythroid progenitor number=1.0) are as indicated: +p<0.05, ++p<0.001.

CFU-E = experiment: Colony formation assay (CFA), cord blood LDMNC: CFU-E colonies; type: cell-based, human; settings: absence of HEMOLINK
Method: as §1, §2, §3
(§5) Erythroid progenitor colony formation assays were conducted as described in Example 1 except that cultures were incubated at either ambient oxygen tensions (˜20% O2) or 5% O2. The reduced oxygen tension of 5% O2 approximates the physiological intravascular oxygen tension in mammals. The mean fold increase in cord blood BFU-E, CFU-E and CFU-GM progenitor number at 5% O2 produced by 1.0 mg/ml HAo (15.6 μM; n=11) or HEMOLINK™ (15.6 μM; n=6), 100 μM hemin (n=10), 250 μM FeCl3 (n=6) or no addition (n=17-18), is shown FIG. 2. Results are expressed relative to control cells treated only with respective vehicles and cultured at ambient oxygen tensions (˜20% O2; fold expansion=1.0; *p<0.05, **p<0.01).
(§6) Erythroid progenitor colony formation assays were conducted as described in Example 1 except that cultures were initiated in the presence of Epo concentrations ranging from 0-2 U/ml. The mean fold increase in cord blood BFU-E, CFU-E and CFU-GM progenitor number produced by 1.0 mg/ml HAo (15.6 μM; n=9) or HEMOLINK™ (15.6 μM; n=6), 100 μM hemin (n=8), 250 μM FeCl3 (n=6), or no addition (n=9-10) in the presence of reduced Epo concentrations (0.2 U/ml) is shown in FIG. 3. Cultures were maintained at ambient oxygen tensions (˜20% O2) for 14 days. Results are expressed relative to control cells at 2 U/ml Epo treated only with the respective vehicles (solid line at fold expansion=1.0; *p<0.05, **p<0 01). Erythroid progenitor colonies were undetectable in the absence of Epo. […]

BFU-E = experiment: Colony formation assay (CFA), cord blood LDMNC: BFU-E colonies; type: cell-based, human; settings: 0.1-100 μM ganciclovir, absence of HEMOLINK
Method: as §1, §2, §3, §5, §6

[2] = Half-life and blood level of Epo versus HEMOLINK after single i.v. administration; type: in vivo; settings: single i.v. 225 U/kg
From the text: Another strategy for the co-administration of Epo and hemoglobin is to reduce the number of Epo administrations required during therapy. Several Epo therapies follow the regimen of three weekly injections, either intravenously or subcutaneously. Multiple low dose or single high dose injections of Epo are required due to its relatively short half-life in vivo. […] HEMOLINK™ has a longer half-life. […] Longer half-life of the cross-linked hemoglobin can therefore compensate for Epo which may decline at a much faster rate. Thus, hemoglobin co-administered with Epo could prolong the effectiveness of Epo and therefore this combination therapy can be used to reduce the required frequency of Epo administrations.

[3] = cited from earlier work

Compound: CC(=O)CC(=O)CCC(=O)O [SA, Succinylacetone]
- effect of SA on CFU-GM proliferation (CFU-GM; 0.5 mM SA): did not inhibit CFU-GM proliferation
- relative erythroid progenitor number (BFU-E+CFU-E) vs untreated plates [1]: 0.31

- dose at which CFU-GM are completely inhibited (CFU-GM; human, 14 days): greater than 10 μM
- effect on CFU-E at 1 μM ganciclovir (CFU-E; 1 μM ganciclovir): unaffected
- inhibition of CFU-E by ganciclovir (CFU-E; 0.1-100 μM ganciclovir): dose-dependent inhibition
- inhibition of BFU-E by ganciclovir (BFU-E): dose-dependent inhibition
Compound: Nc1nc(O)c2ncn(COC(CO)CO)c2n1 [ganciclovir]

Compound: Epo: recombinant human Epo; hormone that stimulates erythroid progenitors
- Epo level ([2]; 0 hours post administration, assuming 85 ml/kg): 2.7 U/ml
- Epo level ([2]; 21 hours post administration): 0.33 U/ml
- Epo level ([2]; 42 hours post administration): 0.041 U/ml
- Epo level ([2]; 63 hours post administration): 0.0052 U/ml
- Epo level ([2]; 84 hours post administration): 0.00065 U/ml
- half-life in plasma ([3]; after a subcutaneous injection): 11.2 to 21.1 h
- half-life in plasma ([3]; after an intravenous injection): 5.6 to 8.8 h
- fraction of subcutaneous dose absorbed into the bloodstream ([3]; subcutaneous): 21.5-46.6%
